Results published in patent US20250154231A1.
Like-named read-outs stand apart in the source and are kept apart here.

Assays:
Assay in all cases: cell-based or functional assay
[1] = target: SARS-CoV-2 spike (S) protein, Omicron BA.2 (SARS-CoV-2) (UniProt P0DTC2)
[2] = target: SARS-CoV-2 spike (S) protein, Omicron BA.2.75 (SARS-CoV-2) (UniProt P0DTC2)
[3] = target: SARS-CoV-2 spike (S) protein, Omicron BA.2.3.20 (SARS-CoV-2) (UniProt P0DTC2)
[4] = target: SARS-CoV-2 spike (S) protein, Omicron BA.2 (SARS-CoV-2) (UniProt P0DTC2); remark: listed apart in the source
[5] = target: SARS-CoV-2 spike (S) protein, Omicron BA.2.75 (SARS-CoV-2) (UniProt P0DTC2); remark: listed apart in the source
[6] = target: SARS-CoV-2 spike (S) protein, Omicron BA.4/5 (SARS-CoV-2) (UniProt P0DTC2)
[7] = target: SARS-CoV-2 spike (S) protein, Victoria strain (SARS-CoV-2) (UniProt P0DTC2)
[8] = target: SARS-CoV-2 spike (S) protein, Omicron BJ.1 (SARS-CoV-2) (UniProt P0DTC2)
[9] = target: SARS-CoV-2 spike (S) protein, Omicron BA.2.75.2 (SARS-CoV-2) (UniProt P0DTC2)
[10] = target: SARS-CoV-2 spike (S) protein, Omicron BA.4.6 (SARS-CoV-2) (UniProt P0DTC2)
[11] = target: SARS-CoV-2 Omicron BA.1 spike (S) protein, pseudovirus construct (SARS-CoV-2) (UniProt P0DTC2)
[12] = target: SARS-CoV-2 spike (S) protein, Omicron BA.1.1 (SARS-CoV-2) (UniProt P0DTC2)
[13] = target: SARS-CoV-2 Gamma spike (S) protein (SARS-CoV-2) (UniProt P0DTC2)
[14] = target: SARS-CoV-2 Omicron BA.2 spike (S) protein (SARS-CoV-2) (UniProt P0DTC2)
[15] = target: SARS-CoV-2 Victoria spike (S) protein (SARS-CoV-2) (UniProt P0DTC2)
[16] = target: SARS-CoV-2 Alpha spike (S) protein (SARS-CoV-2) (UniProt P0DTC2)
[17] = target: SARS-CoV-2 spike (S) protein, Omicron BA.1 (SARS-CoV-2) (UniProt P0DTC2)
[18] = target: SARS-CoV-2 spike (S) protein, Omicron BA.2 (SARS-CoV-2) (UniProt P0DTC2); remark: listed apart in the source
[19] = target: SARS-CoV-2 Beta (B.1.351) spike (S) protein (SARS-CoV-2) (UniProt P0DTC2)
[20] = target: SARS-CoV-2 Omicron BA.3 spike (S) protein (SARS-CoV-2) (UniProt P0DTC2)
[21] = target: SARS-CoV-2 Delta spike (S) protein (SARS-CoV-2) (UniProt P0DTC2)
[22] = target: SARS-CoV-2 spike (S) protein, Omicron BA.2.75 (SARS-CoV-2) (UniProt P0DTC2); remark: listed apart in the source
[23] = target: SARS-CoV-2 Omicron BA.1 spike (S) protein of the live isolate (SARS-CoV-2) (UniProt P0DTC2)
[24] = target: SARS-CoV-2 Omicron BA.1.1 spike (S) protein, pseudovirus construct (SARS-CoV-2) (UniProt P0DTC2)
[25] = target: SARS-CoV-2 Omicron BA.1 spike (S) protein of the pseudovirus (SARS-CoV-2) (UniProt P0DTC2)
[26] = target: SARS-CoV-2 Beta spike (S) protein (SARS-CoV-2) (UniProt P0DTC2)
[27] = target: SARS-CoV-2 spike (S) protein, Omicron BA.4/5 (SARS-CoV-2) (UniProt P0DTC2); remark: listed apart in the source
[28] = target: SARS-CoV-2 spike (S) protein, Victoria strain (SARS-CoV-2) (UniProt P0DTC2); remark: listed apart in the source
[29] = target: SARS-CoV-2 Alpha (B.1.1.7) spike (S) protein (SARS-CoV-2) (UniProt P0DTC2)
[30] = target: SARS-CoV-2 Omicron BA.1.1 spike (S) protein (SARS-CoV-2) (UniProt P0DTC2)
[31] = target: SARS-CoV-2 Omicron BA.4/5 spike (S) protein (SARS-CoV-2) (UniProt P0DTC2)
[32] = target: SARS-CoV-2 Gamma (P.1) spike (S) protein (SARS-CoV-2) (UniProt P0DTC2)
[33] = target: SARS-CoV-2 Omicron BA.2 spike (S) protein, pseudovirus construct (SARS-CoV-2) (UniProt P0DTC2)
[34] = target: SARS-CoV-2 Omicron BA.3 spike (S) protein, pseudovirus construct (SARS-CoV-2) (UniProt P0DTC2)
[35] = target: SARS-CoV-2 Omicron (BA.1) spike (S) protein, live virus isolate (SARS-CoV-2) (UniProt P0DTC2)
[36] = target: SARS-CoV-2 spike (S) protein, Omicron BA.3 (SARS-CoV-2) (UniProt P0DTC2)
[37] = target: SARS-CoV-2 spike (S) protein, Omicron BA.1.1 (SARS-CoV-2) (UniProt P0DTC2); remark: listed apart in the source
[38] = target: SARS-CoV-2 spike (S) protein, Omicron BA.1 (SARS-CoV-2) (UniProt P0DTC2); remark: listed apart in the source
[39] = target: SARS-CoV-2 spike (S) protein, Omicron BA.2.75 (SARS-CoV-2) (UniProt P0DTC2); remark: listed apart in the source
[40] = target: SARS-CoV-2 spike (S) protein, Omicron BA.4/5 (SARS-CoV-2) (UniProt P0DTC2); remark: listed apart in the source
[41] = target: SARS-CoV-2 spike (S) protein, Victoria strain (SARS-CoV-2) (UniProt P0DTC2); remark: listed apart in the source
[42] = target: SARS-CoV-2 spike (S) protein, Omicron BA.3 (SARS-CoV-2) (UniProt P0DTC2); remark: listed apart in the source
[43] = target: SARS-CoV-2 spike (S) protein, Omicron BA.4.6 (SARS-CoV-2) (UniProt P0DTC2); remark: listed apart in the source

Chain of Omi-42 (antibody) (VH): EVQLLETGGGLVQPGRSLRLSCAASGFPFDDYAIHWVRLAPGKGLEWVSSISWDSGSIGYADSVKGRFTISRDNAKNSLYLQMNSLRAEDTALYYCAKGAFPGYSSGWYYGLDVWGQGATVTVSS
Chain of Omi-42 (antibody) (VL): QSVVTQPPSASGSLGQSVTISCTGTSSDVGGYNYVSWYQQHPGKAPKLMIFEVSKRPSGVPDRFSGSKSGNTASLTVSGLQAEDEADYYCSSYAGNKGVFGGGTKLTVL

Substance Omi-42 (antibody) has a pseudovirus neutralisation IC50 [1] of 0.021 µg/mL, a pseudovirus neutralisation IC50 [2] of 0.003 µg/mL and an IC50, pseudoviral neutralization [3] of 0.018 µg/mL. It also gave an IC50, pseudoviral neutralization [4] of 0.021 µg/mL, an IC50, pseudoviral neutralization [5] of 0.003 µg/mL and an IC50, pseudoviral neutralization [6] of 0.013 µg/mL. It also gave an IC50, pseudoviral neutralization [7] of 0.013 µg/mL, an IC50, pseudoviral neutralization [8] of 0.01 µg/mL and an IC50, pseudoviral neutralization [9] of 0.011 µg/mL. It also gave an IC50, pseudoviral neutralization [10] of 0.01 µg/mL, a Pseudovirus - IC50 [11] of 0.007 µg/mL and a pseudovirus neutralisation IC50 [12] of 0.006 µg/mL. It also gave an IC50, authentic virus neutralization [13] of 0.013 µg/mL, an IC50, authentic virus neutralization [14] of 0.031 µg/mL and an IC50, pseudovirus neutralization [14] of 0.021 µg/mL. The Authentic virus-IC50 [15] was 0.016 µg/mL, the IC50, authentic virus neutralization [15] was 0.016 µg/mL and the IC50, pseudovirus neutralization [15] was 0.013 µg/mL. For the same substance, the Pseudovirus - IC50 [15] was 0.013 µg/mL, the IC50, authentic virus neutralization [16] was 0.024 µg/mL and the pseudovirus neutralisation IC50 [17] was 0.007 µg/mL. For the same substance, the pseudovirus neutralisation IC50 [18] was 0.021 µg/mL, the Authentic virus-IC50 [19] was 0.011 µg/mL and the IC50, pseudovirus neutralization [20] was 0.025 µg/mL. It also gave an Authentic virus-IC50 [21] of 0.019 µg/mL, an IC50, authentic virus neutralization [21] of 0.019 µg/mL and a pseudovirus neutralisation IC50 [22] of 0.003 µg/mL. For the same substance, the IC50, authentic virus neutralization [23] was 0.014 µg/mL, the Pseudovirus - IC50 [24] was 0.006 µg/mL and the IC50, pseudovirus neutralization [25] was 0.007 µg/mL. For the same substance, the IC50, authentic virus neutralization [26] was 0.011 µg/mL, the pseudovirus neutralisation IC50 [27] was 0.013 µg/mL and the pseudovirus neutralisation IC50 [28] was 0.013 µg/mL. For the same substance, the Authentic virus-IC50 [29] was 0.024 µg/mL, the IC50, authentic virus neutralization [30] was 0.017 µg/mL and the IC50, pseudovirus neutralization [30] was 0.006 µg/mL. The IC50, pseudovirus neutralization [31] was 0.013 µg/mL, the Authentic virus-IC50 [32] was 0.013 µg/mL and the Pseudovirus - IC50 [33] was 0.021 µg/mL. The Pseudovirus - IC50 [34] was 0.025 µg/mL, the Authentic virus-IC50 [35] was 0.014 µg/mL and the pseudovirus neutralisation IC50 [36] was 0.025 µg/mL.
For S309 (antibody), the IC50, pseudoviral neutralization [3] was 0.977 µg/mL, the IC50, pseudoviral neutralization [4] was 0.638 µg/mL and the IC50, pseudoviral neutralization [5] was 0.202 µg/mL. It also gave an IC50, pseudoviral neutralization [6] of 0.689 µg/mL, an IC50, pseudoviral neutralization [7] of 0.079 µg/mL and an IC50, pseudoviral neutralization [8] of 0.431 µg/mL. The IC50, pseudoviral neutralization [9] was 0.465 µg/mL, the IC50, pseudoviral neutralization [10] was 1.03 µg/mL and the pseudovirus neutralisation IC50 [37] was 0.142 µg/mL. The pseudovirus neutralisation IC50 [38] was 0.113 µg/mL, the pseudovirus neutralisation IC50 [39] was 0.202 µg/mL and the pseudovirus neutralisation IC50 [40] was 0.689 µg/mL. For the same substance, the pseudovirus neutralisation IC50 [41] was 0.079 µg/mL, the pseudovirus neutralisation IC50 [42] was 0.311 µg/mL and the IC50, pseudoviral neutralization [12] was 0.142 µg/mL. It also gave a pseudovirus neutralisation IC50 [12] of 0.138 µg/mL, an IC50, authentic virus neutralization [13] of 0.076 µg/mL and an IC50, authentic virus neutralization [14] of 5.04 µg/mL. It also gave an IC50, authentic virus neutralization [15] of 0.04 µg/mL, an IC50, authentic virus neutralization [16] of 0.078 µg/mL and an IC50, pseudoviral neutralization [17] of 0.113 µg/mL. For the same substance, the pseudovirus neutralisation IC50 [17] was 0.094 µg/mL, the IC50, pseudoviral neutralization [18] was 0.638 µg/mL and the pseudovirus neutralisation IC50 [18] was 0.638 µg/mL. The IC50, authentic virus neutralization [21] was 0.113 µg/mL, the IC50, authentic virus neutralization [23] was 0.256 µg/mL and the IC50, authentic virus neutralization [26] was 0.082 µg/mL. For the same substance, the IC50, pseudoviral neutralization [27] was 0.689 µg/mL, the pseudovirus neutralisation IC50 [27] was 1.04 µg/mL and the IC50, pseudoviral neutralization [28] was 0.079 µg/mL. It also gave a pseudovirus neutralisation IC50 [28] of 0.13 µg/mL, an IC50, authentic virus neutralization [30] of 1.12 µg/mL and an IC50, pseudoviral neutralization [36] of 0.311 µg/mL. It also gave a pseudovirus neutralisation IC50 [36] of 0.228 µg/mL and an IC50, pseudoviral neutralization [43] of 1.03 µg/mL.
